{"source": "the supplement of paper PMC11865577"}
{"system": "G-clamp-N3 (biotin conjugate)", "assay": "pull-down binding Z-score (relative to library population); higher = stronger binding", "details": "RNA library: Library-1 (pre-miRNA loops + repeats)", "method_in_brief": "(§1)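 Streptavidin beads bearing 100 pmol of a biotin-conjugated small molecule were incubated for 60 min at 25 °C with 1 μg of heat-folded, Cy5- or Cy3-end-labelled RNA library in phosphate/NaCl/KCl buffer. Hot SDS eluted the RNA that stayed bound after three washes, and this RNA was hybridised for 20 h at 55.5 °C to a DNA barcode microarray. Binding was expressed as a Z-score against the library mean and standard deviation, after subtraction of a beads-only signal and trimmed averaging of barcoded replicate probes.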"}
{"sequence": "UGUAAAUAACUACAAUUCUCUUAACUCCGUAGCAGUUGC [hsa-mir-7844]", "pull-down binding Z-score": -1.5}
{"sequence": "UGUAAGUUUGCGAUGAGACACUACA [hsa-mir-144]", "pull-down binding Z-score": -0.844}
{"sequence": "UGUACAGGUGAGCGGAUGUUCUGCACA [hsa-mir-3120]", "pull-down binding Z-score": 0.0407}
{"sequence": "UGUACGCUUUAUUUGUGACGUAGG [hsa-mir-1197]", "pull-down binding Z-score": -0.171}
{"sequence": "UGUAUAGUAUUAUUCAAUACC [hsa-mir-1912]", "pull-down binding Z-score": 0.737}
{"sequence": "UGUAUAUAGCAUAUGUGUAUACAUACACACACACACACACACACACACA [hsa-mir-8485]", "pull-down binding Z-score": -1.14}
{"sequence": "UGUAUGUGUAAAUACAUAUCCACACA [hsa-mir-4789]", "pull-down binding Z-score": -1.45}
{"sequence": "UGUAUUUUUCAGCAAGGCAAGGGCUUUGAUGUCUUGUA [hsa-mir-8065]", "pull-down binding Z-score": -0.314}
{"sequence": "UGUCAUUACUUUCAAUGGCA [hsa-mir-548h-2]", "pull-down binding Z-score": 0.222}
{"sequence": "UGUCAUUACUUUUAACUGUA [hsa-mir-548h-5]", "pull-down binding Z-score": -0.935}
{"sequence": "UGUCAUUACUUUUAAUGGUA [hsa-mir-548h-1]", "pull-down binding Z-score": -1.35}
{"sequence": "UGUCAUUGAAAGUAAUAGCA [hsa-mir-548h-3]", "pull-down binding Z-score": -1.07}
{"sequence": "UGUCGUAGAAAGUAAUGGCA [hsa-mir-548l]", "pull-down binding Z-score": 0.662}
{"sequence": "UGUCUUGUAGCCAGGAUAUUGUUUUAAAGAA [hsa-mir-4668]", "pull-down binding Z-score": -0.739}
{"sequence": "UGUCUUGUGUCUGUAAGUAU [hsa-mir-1275]", "pull-down binding Z-score": -0.561}
{"sequence": "UGUCUUUUUUUUUUUCUGAGACA [hsa-mir-1273c]", "pull-down binding Z-score": -0.128}
{"sequence": "UGUGACCUGGAGCAGCUCAGGAGGGCUUCCUGGGUGAGGUGGCAGGUUACA [hsa-mir-4311]", "pull-down binding Z-score": 2.01}
{"sequence": "UGUGAGAGCUACUAAGUCUUAUA [hsa-mir-8076]", "pull-down binding Z-score": 0.772}
{"sequence": "UGUGCCCCGUACCGGACAGG [hsa-mir-7160]", "pull-down binding Z-score": -1.03}
{"sequence": "UGUGCCUGCCUUCGAAGUGCACGGCAGG [hsa-mir-4297]", "pull-down binding Z-score": -0.529}
{"sequence": "UGUGCCUUGCCUUUCCUUUGGCACA [hsa-mir-4438]", "pull-down binding Z-score": 0.155}
{"sequence": "UGUGGCAGUGGCAGAGGUCGCUACA [hsa-mir-6856]", "pull-down binding Z-score": 1.12}
{"sequence": "UGUGGCCUGGGGGUUGAGGACCCCUGCUCUA [hsa-mir-645]", "pull-down binding Z-score": 1.32}
{"sequence": "UGUGGCCUUUUUGCCUUUUCUAAAGGCCACAU [hsa-mir-1250]", "pull-down binding Z-score": 0.00873}
{"sequence": "UGUGGUCACCCACUCU [hsa-mir-4316]", "pull-down binding Z-score": -0.668}
{"sequence": "UGUGGUGGGUGGUGGCCUGCGGUGAGCAGGGCCCUCA [hsa-mir-1228]", "pull-down binding Z-score": 0.921}
{"sequence": "UGUGGUUGGGGCCAUGGCGGGUGGGCAGCCCAGCCUCUGAGCCUUCCU [hsa-mir-1238]", "pull-down binding Z-score": -0.179}
{"sequence": "UGUGUGCUGAGAAAAUUCACACA [hsa-mir-5580]", "pull-down binding Z-score": -0.421}
{"sequence": "UGUGUGUACUCACAGCCCCUCACACA [hsa-mir-942]", "pull-down binding Z-score": -0.624}
{"sequence": "UGUGUGUCGCUCCGGGUCCACG [hsa-mir-574]", "pull-down binding Z-score": 0.438}
{"sequence": "UGUGUUCAGUGGAACCAAGGUAAACACA [hsa-mir-624]", "pull-down binding Z-score": 1.58}
{"sequence": "UGUUAAGGCAUGUUCAGGAACA [hsa-mir-1265]", "pull-down binding Z-score": 2.1}
{"sequence": "UGUUAGUGUUCAAGUCUACA [hsa-mir-4802]", "pull-down binding Z-score": 0.156}
{"sequence": "UGUUCACUUUCUAUAUGAUGAAUA [hsa-mir-656]", "pull-down binding Z-score": -0.48}
{"sequence": "UGUUCAGUGGGAUUUGGAGA [hsa-mir-8061]", "pull-down binding Z-score": -0.118}
{"sequence": "UGUUCAUGUCUCUCUGUGCACAGGGGACGAGAGUCA [hsa-mir-4420]", "pull-down binding Z-score": 0.39}
{"sequence": "UGUUCAUUCACAUGAUCAUAAGUGGACA [hsa-mir-4643]", "pull-down binding Z-score": 0.373}
{"sequence": "UGUUCGCUUUAUUUAUGAUGAAUCA [hsa-mir-539]", "pull-down binding Z-score": 0.0951}
{"sequence": "UGUUCGUUUUGCUCAUGUCGAAUC [hsa-mir-487b]", "pull-down binding Z-score": -0.817}
{"sequence": "UGUUGACUGAAUAAUAAACA [hsa-mir-3139]", "pull-down binding Z-score": -1.29}
{"sequence": "UGUUGAGCGCAGUAAGACAACA [hsa-mir-3529]", "pull-down binding Z-score": 0.892}
{"sequence": "UGUUGGCAGCCCAAGAUGACA [hsa-mir-4686]", "pull-down binding Z-score": -0.568}
{"sequence": "UGUUGGGGGGACA [hsa-mir-4262]", "pull-down binding Z-score": -0.216}
{"sequence": "UGUUGGUUGAAGAUGCCUUUCAACA [hsa-mir-552]", "pull-down binding Z-score": 0.0946}
{"sequence": "UGUUUAACUCCUCUCCACGUGAACA [hsa-mir-499a]", "pull-down binding Z-score": -0.0505}
{"sequence": "UGUUUAUGUUAUUUAUGGUUAAACA [hsa-mir-376c]", "pull-down binding Z-score": 0.239}
{"sequence": "UGUUUCUUUAAUGAGGACGAAACA [hsa-mir-329-1]", "pull-down binding Z-score": 1.67}
{"sequence": "UGUUUCUUUAUUGAGGACGAAACA [hsa-mir-329-2]", "pull-down binding Z-score": 0.973}
{"sequence": "UGUUUGUGUCUAAACUAUCAAACG [hsa-mir-122]", "pull-down binding Z-score": -0.679}
{"sequence": "UGUUUUUGCCAUUAAAAAUAAUGGCAUUAAAAGUAAUGGCAAAAACG [hsa-mir-548al]", "pull-down binding Z-score": -0.871}
{"sequence": "UUAAAUGUGUCAUUUAAAAAUUCAG [hsa-mir-1972-1_1972-2]", "pull-down binding Z-score": -1.87}
{"sequence": "UUAACAUGUUGAGCAUUACUCAUGUUAG [hsa-mir-3684]", "pull-down binding Z-score": -0.319}
{"sequence": "UUAACCUAAAAUGAGAAGGCUAA [hsa-mir-633]", "pull-down binding Z-score": -1.29}
{"sequence": "UUAAUGAGGCCAUAGA [hsa-mir-6863]", "pull-down binding Z-score": -0.397}
{"sequence": "UUACCCAACGUCUCUGAGUCUCGGUUUUGAGAGGGUGAGUAA [hsa-mir-7973-1]", "pull-down binding Z-score": 0.981}
{"sequence": "UUACUCACCCUCUCAAAACCGAGACUCAGAGACGUUGGGUAA [hsa-mir-7973-2]", "pull-down binding Z-score": -1.63}
{"sequence": "UUACUGCAGGGAUCUUAGCAGUAC [hsa-mir-583]", "pull-down binding Z-score": -0.752}
{"sequence": "UUAGCCCAGCAAUGGGAGAGUGCUAA [hsa-mir-4636]", "pull-down binding Z-score": 0.508}
{"sequence": "UUAUACCUGAUGCUCACGUAUAA [hsa-mir-208a]", "pull-down binding Z-score": -0.85}
{"sequence": "UUAUCUGUCACCAGUCAGAUAACUGUCACCAGUCAGUUAA [hsa-mir-4764]", "pull-down binding Z-score": -0.644}
{"sequence": "UUAUGUUUCUGAUCCGAAUAUAA [hsa-mir-208b]", "pull-down binding Z-score": 0.538}
{"sequence": "UUAUUCAGAGAGGCUAGAUCCUCUGUGUUGAGAAGGAUCA [hsa-mir-433]", "pull-down binding Z-score": 0.503}
{"sequence": "UUAUUUGAGAUGAGUUACAUCUUGGAGG [hsa-mir-1204]", "pull-down binding Z-score": -0.564}
{"sequence": "UUCACAGACUCUCCAAAAGUCUGAA [hsa-mir-4670]", "pull-down binding Z-score": -1.33}
{"sequence": "UUCAGAGUCAAUAUAAUUUUCUAG [hsa-mir-29a]", "pull-down binding Z-score": 0.0825}
{"sequence": "UUCAGAUUUUGGAACAUUUCGGAUUUUGGA [hsa-mir-1290]", "pull-down binding Z-score": 2.01}
{"sequence": "UUCAGCCUAAAGCAAUGAGAAGCCUCUGAAAGGCUGA [hsa-mir-1827]", "pull-down binding Z-score": -0.0259}
{"sequence": "UUCAUAGGGAAGCCUUUCCAUGAA [hsa-mir-4738]", "pull-down binding Z-score": -0.912}
{"sequence": "UUCAUGUUCACUGAAAGGUAGAUUUUAAAAACAUGAA [hsa-mir-4790]", "pull-down binding Z-score": -0.0488}
{"sequence": "UUCAUUCAUUCGUUUGCACAUUCGGUGAA [hsa-mir-493]", "pull-down binding Z-score": 0.183}
{"sequence": "UUCAUUUUAUUUAUGAUGAG [hsa-mir-496]", "pull-down binding Z-score": 1.12}
{"sequence": "UUCCGGUGAUUAUCACAGCCAUGCCUUUACCUCCAGAA [hsa-mir-4493]", "pull-down binding Z-score": -0.101}
{"sequence": "UUCCUUGUCUGUAGCCAUGUCUAUGGGCUCUUGAG [hsa-mir-571]", "pull-down binding Z-score": -0.205}
{"system": "TO-3-N3 (biotin conjugate)", "assay": "pull-down binding Z-score (relative to library population); higher = stronger binding", "details": "RNA library: Library-2", "method_in_brief": "as §1"}
{"sequence": "UGUAAAUAACUACAAUUCUCUUAACUCCGUAGCAGUUGC [hsa-mir-7844]", "pull-down binding Z-score": -0.267}
{"sequence": "UGUAAGUUUGCGAUGAGACACUACA [hsa-mir-144]", "pull-down binding Z-score": 0.0531}
{"sequence": "UGUACAGGUGAGCGGAUGUUCUGCACA [hsa-mir-3120]", "pull-down binding Z-score": 1.53}
{"sequence": "UGUACGCUUUAUUUGUGACGUAGG [hsa-mir-1197]", "pull-down binding Z-score": -0.438}
{"sequence": "UGUAUAGUAUUAUUCAAUACC [hsa-mir-1912]", "pull-down binding Z-score": -0.222}
{"sequence": "UGUAUAUAGCAUAUGUGUAUACAUACACACACACACACACACACACACA [hsa-mir-8485]", "pull-down binding Z-score": 0.396}
{"sequence": "UGUAUGUGUAAAUACAUAUCCACACA [hsa-mir-4789]", "pull-down binding Z-score": 0.0268}
{"sequence": "UGUAUUUUUCAGCAAGGCAAGGGCUUUGAUGUCUUGUA [hsa-mir-8065]", "pull-down binding Z-score": -0.583}
{"sequence": "UGUCAUUACUUUCAAUGGCA [hsa-mir-548h-2]", "pull-down binding Z-score": -0.726}
{"sequence": "UGUCAUUACUUUUAACUGUA [hsa-mir-548h-5]", "pull-down binding Z-score": 1.2}
{"sequence": "UGUCAUUACUUUUAAUGGUA [hsa-mir-548h-1]", "pull-down binding Z-score": -0.328}
{"sequence": "UGUCAUUGAAAGUAAUAGCA [hsa-mir-548h-3]", "pull-down binding Z-score": -0.165}
{"sequence": "UGUCGUAGAAAGUAAUGGCA [hsa-mir-548l]", "pull-down binding Z-score": 0.0469}
{"sequence": "UGUCUUGUAGCCAGGAUAUUGUUUUAAAGAA [hsa-mir-4668]", "pull-down binding Z-score": -0.404}
{"sequence": "UGUCUUGUGUCUGUAAGUAU [hsa-mir-1275]", "pull-down binding Z-score": -0.619}
{"sequence": "UGUCUUUUUUUUUUUCUGAGACA [hsa-mir-1273c]", "pull-down binding Z-score": -0.718}
{"sequence": "UGUGACCUGGAGCAGCUCAGGAGGGCUUCCUGGGUGAGGUGGCAGGUUACA [hsa-mir-4311]", "pull-down binding Z-score": 0.566}
{"sequence": "UGUGAGAGCUACUAAGUCUUAUA [hsa-mir-8076]", "pull-down binding Z-score": 0.0311}
